Consider 1 molecule from patent publication CN115368463A (HEFEI TIANGANG IMMUNOLOGY PHARMACEUTICAL CO LTD, dated 2022).

One assay deals with T1, CD27蛋白 (Homo sapiens (Human), UniProt P26842 20-260).
T1 construct: also called CHO-K1-CD27细胞; Jurkat-NFAT-lucia-CD27细胞
T1 sequence: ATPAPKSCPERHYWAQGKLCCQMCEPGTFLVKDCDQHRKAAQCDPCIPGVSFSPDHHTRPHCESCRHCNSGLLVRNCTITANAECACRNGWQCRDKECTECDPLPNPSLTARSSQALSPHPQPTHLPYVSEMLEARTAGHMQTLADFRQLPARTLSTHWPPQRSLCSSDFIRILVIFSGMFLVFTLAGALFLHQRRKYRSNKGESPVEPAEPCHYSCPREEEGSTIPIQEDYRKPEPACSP
Put plainly: flow cytometry on CHO-K1-CD27 cells, antibody at 0.1-300 μg/mL, Alexa-647 anti-human Fc secondary antibody. For orientation: Flow cytometry measures light scatter and fluorescence of single cells or particles in a stream.

A further assay addresses T2, Nectin-4蛋白 (Homo sapiens (Human), UniProt Q96NY8 32-510).
T2 construct: also called PVRL4; CHO-K1-Nectin-4细胞
T2 sequence: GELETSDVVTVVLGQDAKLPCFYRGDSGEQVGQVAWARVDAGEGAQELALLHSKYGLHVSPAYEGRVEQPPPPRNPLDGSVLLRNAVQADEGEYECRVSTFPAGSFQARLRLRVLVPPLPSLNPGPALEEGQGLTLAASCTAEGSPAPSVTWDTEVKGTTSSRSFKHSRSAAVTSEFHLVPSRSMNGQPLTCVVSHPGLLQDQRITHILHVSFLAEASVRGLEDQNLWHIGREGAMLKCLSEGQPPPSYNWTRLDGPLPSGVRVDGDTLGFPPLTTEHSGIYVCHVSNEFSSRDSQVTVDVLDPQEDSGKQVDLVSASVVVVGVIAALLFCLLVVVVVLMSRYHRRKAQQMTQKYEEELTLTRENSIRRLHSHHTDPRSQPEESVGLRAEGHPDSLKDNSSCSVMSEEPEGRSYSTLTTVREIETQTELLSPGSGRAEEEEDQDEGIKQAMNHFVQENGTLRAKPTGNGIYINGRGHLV
The assay can be described thus: flow cytometry on CHO-K1-Nectin-4 cells, antibody at 0.1-300 μg/mL, Alexa-647 anti-human Fc secondary antibody.

B1: 抗体CD27×Nectin-4 (bispecific antibody, human IgG1, kappa, L234A L235A)
scFv: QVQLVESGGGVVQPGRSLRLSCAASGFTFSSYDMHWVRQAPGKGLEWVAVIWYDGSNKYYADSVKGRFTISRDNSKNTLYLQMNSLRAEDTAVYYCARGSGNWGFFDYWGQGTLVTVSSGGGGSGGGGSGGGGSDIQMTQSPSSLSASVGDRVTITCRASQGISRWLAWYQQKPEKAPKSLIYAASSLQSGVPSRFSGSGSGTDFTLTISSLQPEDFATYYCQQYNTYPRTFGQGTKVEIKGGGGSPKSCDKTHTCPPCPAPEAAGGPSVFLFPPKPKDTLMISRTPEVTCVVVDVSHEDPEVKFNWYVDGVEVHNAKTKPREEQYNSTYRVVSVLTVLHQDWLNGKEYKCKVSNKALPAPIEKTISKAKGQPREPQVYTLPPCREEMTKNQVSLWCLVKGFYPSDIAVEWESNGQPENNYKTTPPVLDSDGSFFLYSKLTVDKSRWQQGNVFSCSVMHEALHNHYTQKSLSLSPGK
heavy: EVQLVESGGGLVQPGGSLRLSCAASGFTFSSYNMNWVRQAPGKGLEWVSYISSSSSTIYYADSVKGRFTISRDNAKNSLSLQMNSLRDEDTAVYYCARAYYYGMDVWGQGTTVTVSSASTKGPSVFPLAPSSKSTSGGTAALGCLVKDYFPEPVTVSWNSGALTSGVHTFPAVLQSSGLYSLSSVVTVPSSSLGTQTYICNVNHKPSNTKVDKKVEPKSCDKTHTCPPCPAPEAAGGPSVFLFPPKPKDTLMISRTPEVTCVVVDVSHEDPEVKFNWYVDGVEVHNAKTKPREEQYNSTYRVVSVLTVLHQDWLNGKEYKCKVSNKALPAPIEKTISKAKGQPREPQVCTLPPSREEMTKNQVSLSCAVKGFYPSDIAVEWESNGQPENNYKTTPPVLDSDGSFFLVSKLTVDKSRWQQGNVFSCSVMHEALHNHYTQKSLSLSPGK
light: DIQMTQSPSSVSASVGDRVTITCRASQGISGWLAWYQQKPGKAPKFLIYAASTLQSGVPSRFSGSGSGTDFTLTISSLQPEDFATYYCQQANSFPPTFGGGTKVEIKRTVAAPSVFIFPPSDEQLKSGTASVVCLLNNFYPREAKVQWKVDNALQSGNSQESVTEQDSKDSTYSLSSTLTLSKADYEKHKVYACEVTHQGLSSPVTKSFNRGEC
notes: also called CD27×Nectin-4抗体; CD27×Nectin-4双特异抗体
For the molecule B1, the binding result with CD27蛋白 and in the assay with Nectin-4蛋白 was “binds” each time.
